For orientation: Kd means a measure of binding affinity in units of concentration. Usually koff stands for the first-order rate constant of dissociation. Broadly, the kon is the second-order rate constant of association.

We go through 2 molecules from article PMC4742745 (The Journal of Biological Chemistry, 2015).

Assay [1] has as its target T1, recombinant human wild type LCAT protein (lecithin-cholesterol acyltransferase) (human, UniProt P04180 25-440).
T1 construct: human lecithin-cholesterol acyltransferase (EC 2.3.1.43), full-length coding region cloned from liver and brain cDNAs into pDSRa25; also called rLCAT; human rLCAT
T1 sequence (looked up): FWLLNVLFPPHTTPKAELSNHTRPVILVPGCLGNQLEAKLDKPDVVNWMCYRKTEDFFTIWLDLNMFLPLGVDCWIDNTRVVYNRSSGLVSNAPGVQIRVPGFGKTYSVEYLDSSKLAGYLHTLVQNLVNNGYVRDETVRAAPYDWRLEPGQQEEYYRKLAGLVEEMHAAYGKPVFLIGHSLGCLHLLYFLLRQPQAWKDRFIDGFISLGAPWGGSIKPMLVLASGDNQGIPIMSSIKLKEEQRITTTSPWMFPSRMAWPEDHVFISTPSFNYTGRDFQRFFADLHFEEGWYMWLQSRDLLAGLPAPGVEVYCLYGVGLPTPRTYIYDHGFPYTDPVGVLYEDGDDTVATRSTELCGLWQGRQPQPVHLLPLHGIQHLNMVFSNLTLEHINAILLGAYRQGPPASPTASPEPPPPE
In words: SPR; Biacore 3000, 25 °C, HBS-EP (10 mM HEPES pH 7.4, 150 mM NaCl, 3.0 mM EDTA, 0.05% surfactant P20); mAb captured (100 RU) on goat anti-human IgG Fc amine-coupled to a CM5 chip; LCAT flowed over (human 100 nM to 412 pM, cynomolgus 111 nM to 457 pM, 3-fold dilutions); 1:1 binding model, KD = kd/ka. The following applies: both partners purified.

The target in assay [2] is T1, recombinant human wild type LCAT …. Nature of the assay: cell-based or functional assay.

B1: 27C3, fully human anti-human LCAT agonistic monoclonal antibody (antibody, V domains shown)
VH: QVQLQESGPGLVKPSQTLSLTCTVSGASISSGGYNWSWIRQHPGKGLEWIGYIYYSGSTYYNPSLKSRVTISVDTSKNQFSLKLSSVTAADTAVYYCARERGYCSSTSCSRVMDVWGQGTTVTVSS
VL: SSELTQDPAVSVALGQTVRITCQGDSLRSYYASWYQQKPGQAPVLVIYGKNNRPSGIPDRFSGSSSGNTASLTITGAQAEDEADYYCNSRDNIGNHQVFGGGTKLTVLG
notes: VH of 27C3; VL of 27C3 (lambda); Human IgG2 with lambda light chain; a possible N-linked glycosylation site in heavy chain CDR1; also called 27C3 mAb; 27C3-huIgG2; source: XenoMouse hybridoma, purified from clonal hybridoma exhaust supernatants
On to B1, for which the dissociation constant (Kd) in assay [1] was 1.32 nM. In addition, the “increase of the cholesterol esterification activity of native LCAT by 27C3, apoAI-proteoliposomes as substrate” value in assay [2] was found to be 3 fold.

B2: 18E5, fully human anti-human LCAT agonistic monoclonal antibody (antibody, V domains shown)
VH: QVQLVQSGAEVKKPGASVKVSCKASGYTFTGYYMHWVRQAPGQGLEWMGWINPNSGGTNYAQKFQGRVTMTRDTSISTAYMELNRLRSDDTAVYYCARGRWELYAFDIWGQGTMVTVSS
VL: EIVLTQSPGTLSLSPGERATLSCRASQSVSGSYLTWYQQKPGQAPRLLIYGASSRATGIPDRFSGSGSGTDFTLTISRLEPEDFAMYYCQQYGGSPPFTFGPGTKVDIKR
notes: VH of 18E5; VL of 18E5 (kappa); Human IgG with kappa light chain (the light chain was amplified with a primer to the human kappa constant region); also called 18E5 mAb; source: XenoMouse hybridoma, purified from clonal hybridoma exhaust supernatants
With B2, in assay [1], the equilibrium dissociation constant (Kd) is 1.01 nM, the koff was 0.000133 s⁻¹ and the kon was determined as 132000 M⁻¹ s⁻¹.
